# Patent US20200308270A1 (Zymeworks, published 2020)
# T1: human recombinant FcgammaR receptor CD32aR (human, UniProt P12318 34-217, limits assumed)
# T1 sequence (looked up): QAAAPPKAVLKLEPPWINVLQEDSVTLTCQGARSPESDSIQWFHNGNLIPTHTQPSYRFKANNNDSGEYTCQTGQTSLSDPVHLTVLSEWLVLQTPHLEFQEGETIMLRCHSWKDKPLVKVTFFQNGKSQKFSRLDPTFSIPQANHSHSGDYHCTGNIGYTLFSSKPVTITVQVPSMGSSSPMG
# T2: recombinant human sFas receptor (human, UniProt P25445 17-173, limits assumed)
# T2 construct: Bought reagent
# T2 sequence (looked up): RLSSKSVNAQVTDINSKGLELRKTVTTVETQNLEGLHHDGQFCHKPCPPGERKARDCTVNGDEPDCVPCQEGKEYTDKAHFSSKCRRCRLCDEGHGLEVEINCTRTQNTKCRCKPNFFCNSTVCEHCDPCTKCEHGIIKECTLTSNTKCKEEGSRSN
# Columns and labels:
# human recombinant FcRn = target: T3, human recombinant FcRn (human, UniProt P55899 24-297; P61769 21-119, limits assumed); experiment: SPR (ProteOn), FcRn immobilized, Mab analyte, pH 5.8
# T3 construct: also called neonatal receptor
# Method: FcRn affinity determination was carried out as follows. FcRn surface was generated using a GLC sensorchip activated by a 1:10 dilution of the standard BioRad sNHS/EDC solutions injected for 140s at 100 μL/min in the ligand (vertical) direction. Immediately after the activation, 10 microg/mL solution of FcRn in 10 mM NaOAc pH 4.5 was injected in the ligand (vertical) direction at a flow rate of 25 microL/min for 120s until approximately 2000 resonance units (RUs) were immobilized. Remaining active groups were quenched by a 140s injection of 1M ethanolamine at 30 μL/min also in the ligand direction. The running buffer used on the FcRn surface was PBST pH 5.8. The screening of the Mabs for binding to FcRn was performed by injection of purified Mabs in the analyte (horizontal) direction. Firstly, two buffer injections for 30s at 100 microL/min in the analyte (horizontal) direction were used to stabilize the baseline. Five concentrations of a three-fold dilution series of each Mab starting at 100 nM with a blank buffer control were simultaneously injected at 50 microL/min for 120 s with a 10 minute dissociation phase, resulting in a set of binding sensorgrams with a buffer reference. […] Sensorgrams were aligned and double-referenced using the buffer blank injection and interspots, and the resulting sensorgrams were analyzed using ProteOn Manager software v3.1. The double-referenced sensorgrams were fit to the Langmuir binding model.
# recombinant human HER3 = target: T4, recombinant human HER3 (human, UniProt P21860 20-643); experiment: SPR (ProteOn), Mab captured via anti-human Fc, HER3 analyte
# T4 construct: Bought reagent
# Method: HER3 affinity determination in Mabs was carried out as follows. The screening of Mabs for binding to HER3 antigen occurred in two steps: an indirect capture of Mabs onto the anti-human Fc-specific polyclonal antibody surface, followed by the injection of five concentrations of HER3. The anti-human Fc surface was prepared on a GLC sensorchip by amine coupling. GLC sensorchip surface was activated by a 1:10 dilution of the standard BioRad sNHS/EDC solutions injected for 140s at 100 pt/min in the analyte (horizontal) direction. Immediately after the activation, 25 microg/mL solution of anti-human Fc in 10 mM NaOAc pH 4.5 was injected in the ligand (vertical) direction at a flow rate of 25 microL/min for 240s until approximately 3000 resonance units (RUs) were immobilized. Remaining active groups were quenched by a 140s injection of 1M ethanolamine at 100 μL/min also in the analyte direction. Mabs for analysis were indirectly captured onto the anti-Fc surface by injecting 20 microg/mL solutions in the ligand (vertical) direction at a flow rate of 25 microL/min for 240s. HER3 was subsequently injected in the analyte (horizontal) direction. Firstly, two buffer injections for 30s at 100 microL/min in the analyte (horizontal) direction were used to stabilize the baseline. […] Sensorgrams were aligned and double-referenced using the buffer blank injection and interspots, and the resulting sensorgrams were analyzed using ProteOn Manager software v3.1. The double-referenced sensorgrams were fit to the Langmuir binding model.
# [1] = target: human recombinant FcgammaR receptor CD16aV (human, UniProt P08637 17-208, limits assumed); experiment: SPR (ProteOn), Mab captured via anti-human Fc, FcgammaR analyte
# Chain of human recombinant FcgammaR receptor CD16aV (P08637 17-208 F176V limits assumed): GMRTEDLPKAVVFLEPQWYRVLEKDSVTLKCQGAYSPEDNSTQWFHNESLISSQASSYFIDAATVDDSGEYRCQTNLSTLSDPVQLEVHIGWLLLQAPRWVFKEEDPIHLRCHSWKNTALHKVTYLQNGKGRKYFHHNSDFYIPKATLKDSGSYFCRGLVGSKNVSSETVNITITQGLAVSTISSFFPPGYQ
# Method: (§1) Goat polyclonal anti-human Fc antibody was purchased from Jackson Immuno Research Laboratories Inc. (West Grove, Pa.). […] Human recombinant FcγR receptors: CD16aV, CD32bF, CD32aR, and CD32aH were expressed as constructs containing a His10-tag at the C-terminus and purified by Ni-affinity chromatography followed by His-tag removal and SEC purification.
# (§2) FcγR affinity determination was carried out as follows. The screening of Mabs for binding to various FcγR receptors occurred in two steps: an indirect capture of Mab samples onto the anti-human Fc-specific polyclonal antibody surface, followed by the injection of five concentrations of each of FcγR receptors. The anti-human Fc surface was prepared on a GLC sensorchip by amine coupling. GLC sensorchip surface was activated by a 1:10 dilution of the standard BioRad sNHS/EDC solutions injected for 140s at 100 μL/min in the analyte (horizontal) direction. Immediately after the activation, 25 microg/mL solution of anti-human Fc in 10 mM NaOAc pH 4.5 was injected in the analyte direction at a flow rate of 25 microL/min for 240s until approximately 4500 or 2500 resonance units (RUs) were immobilized. Remaining active groups were quenched by a 300s injection of 1M ethanolamine at 30 μL/min also in the analyte direction. Mabs for analysis were indirectly captured onto the anti-human Fc surface by injecting 10 microg/ml solutions in the ligand (vertical) direction at a flow rate of 25 microL/min for 240s. Each of the FcγR receptors was subsequently injected in the analyte (horizontal) direction. Firstly, two buffer injections for 30s at 100 microL/min in the analyte (horizontal) direction were used to stabilize the baseline. Five concentrations of a three-fold dilution series of each of the four FcγR receptors starting at 10 μM with a blank buffer control were then simultaneously injected at 50 microL/min for 120 s with a 3 minute dissociation phase, resulting in a set of binding sensorgrams with a buffer reference. […] Sensorgrams were aligned and double-referenced using the buffer blank injection and interspots, and the resulting sensorgrams were analyzed using ProteOn Manager software v3.1.
# [2] = target: T1, human recombinant FcgammaR receptor …; experiment: as above
# Method: as §1, §2
# recombinant human IL-17A = target: T5, recombinant human IL-17A (human, UniProt Q16552 20-155, limits assumed); experiment: SPR (ProteOn), IL-17A immobilized, Mab analyte
# T5 construct: Bought reagent
# T5 sequence (Q16552 20-155 limits assumed): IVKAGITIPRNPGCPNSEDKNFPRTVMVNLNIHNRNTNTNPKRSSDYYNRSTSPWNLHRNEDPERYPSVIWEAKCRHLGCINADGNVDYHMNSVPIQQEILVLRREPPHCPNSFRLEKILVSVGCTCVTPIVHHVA
# Method: IL-17 affinity determination was carried out as follows. The IL-17A surface was generated using a GLC sensorchip activated by a 1:10 dilution of the standard BioRad sNHS/EDC solutions injected for 140s at 100 pt/min in the ligand (vertical) direction. Immediately after the activation, 1 to 4 microg/mL solution of IL-17A in 10 mM NaOAc pH 4.5 was injected in the ligand (vertical) direction at a flow rate of 25 or 100 microL/min until approximately 75-200 resonance units (RUs) were immobilized. Remaining active groups were quenched by a 140s injection of 1M ethanolamine at 100 μL/min also in the ligand direction. […] Firstly, two buffer injections for 30s at 100 microL/min in the analyte (horizontal) direction were used to stabilize the baseline. […] Sensorgrams were aligned and double-referenced using the buffer blank injection and interspots, and the resulting sensorgrams were analyzed using ProteOn Manager software v3.1. The double-referenced sensorgrams were fit to the Langmuir binding model.
# [3] = target: T2, recombinant human sFas receptor; experiment: SPR (Biacore T200), Fas immobilized, Fab analyte
# Method: Fas affinity determination was carried out as follows. Fas was diluted in 10 mM acetate buffer pH 5.5 and directly immobilized via amine coupling onto a CMS Series S sensor chip. […] The reference flow cell was left empty (ethanolamine blocked) to use as a blank control. Fabs were injected over both the ethanolamine-blocked reference surface and the Fas surface for kinetic analysis using single cycle kinetics. […] Fas surfaces were regenerated using 2 cycles of 10 mM glycine pH 1.5 for 120 s at 30 pt/min to prepare the surfaces for the next injection cycle. At least two mock-buffer injections were performed for each analyte injection to be used for referencing. The resulting single cycle kinetics sensorgrams were analyzed using Biacore T200 BiaEvaluation software version 3.0 and fit to the 1:1 binding model.
Binder,Kd (human recombinant FcRn) [nM],Kd (recombinant human HER3) [nM],Kd [1] [nM],Kd [2] [nM],Kd (recombinant human IL-17A) [nM],Kd [3] [nM]
"H3 designed Vlambda-Ckappa chimeric Mab, design 37 (E83A_D85T) (antibody, human IgG1, kappa, name in Kabat numbering, IgG1 Mab format) heavy: not shown light: QSALTQPASVSGSPGQSITISCTGTSSDVGGYNFVSWYQQHPGKAPKLMIYDVSDRPSGVSDRFSGSKSGNTASLIISGLQADDAATYYCSSYGSSSTHVIFGGGTKVTVLRTVAAPSVFIFPPSDEQLKSGTASVVCLLNNFYPREAKVQWKVDNALQSGNSQESVTEQDSKDSTYSLSSTLTLSKADYEKHKVYACEVTHQGLSSPVTKSFNRGEC",80.2,67,1300,3400,,
"H3 designed Vlambda-Ckappa chimeric Mab, design 26 (E83V_D85T) (antibody, human IgG1, kappa, name in Kabat numbering, IgG1 Mab format) heavy: not shown light: QSALTQPASVSGSPGQSITISCTGTSSDVGGYNFVSWYQQHPGKAPKLMIYDVSDRPSGVSDRFSGSKSGNTASLIISGLQADDVATYYCSSYGSSSTHVIFGGGTKVTVLRTVAAPSVFIFPPSDEQLKSGTASVVCLLNNFYPREAKVQWKVDNALQSGNSQESVTEQDSKDSTYSLSSTLTLSKADYEKHKVYACEVTHQGLSSPVTKSFNRGEC",,56,,,,
"CAT-2200 designed Vlambda-Ckappa chimeric Mab, design 37 (E83A_D85T) (antibody, human IgG1, kappa, IgG1 Mab format) heavy: not shown light: NFMLTQPHSVSESPGKTVTISCTRSSGSLANYYVQWYQQRPGSSPTIVIFANNQRPSGVPDRFSGSIDSSSNSASLTISGLKTEDAATYYCQTYDPYSVVFGGGTKLTVLRTVAAPSVFIFPPSDEQLKSGTASVVCLLNNFYPREAKVQWKVDNALQSGNSQESVTEQDSKDSTYSLSSTLTLSKADYEKHKVYACEVTHQGLSSPVTKSFNRGEC",23.4,,1400,2400,0.048,
"CAT-2200 designed Vlambda-Ckappa chimeric Mab, design 26 (E83V_D85T) (antibody, human IgG1, kappa, IgG1 Mab format) heavy: not shown light: NFMLTQPHSVSESPGKTVTISCTRSSGSLANYYVQWYQQRPGSSPTIVIFANNQRPSGVPDRFSGSIDSSSNSASLTISGLKTEDVATYYCQTYDPYSVVFGGGTKLTVLRTVAAPSVFIFPPSDEQLKSGTASVVCLLNNFYPREAKVQWKVDNALQSGNSQESVTEQDSKDSTYSLSSTLTLSKADYEKHKVYACEVTHQGLSSPVTKSFNRGEC",,,,,0.048,
"CAT-2200 designed Vlambda-Ckappa chimeric Mab, design 34 (E83I_D85T_T105E_V106I) (antibody, human IgG1, kappa, IgG1 Mab format) heavy: not shown light: NFMLTQPHSVSESPGKTVTISCTRSSGSLANYYVQWYQQRPGSSPTIVIFANNQRPSGVPDRFSGSIDSSSNSASLTISGLKTEDIATYYCQTYDPYSVVFGGGTKLEILRTVAAPSVFIFPPSDEQLKSGTASVVCLLNNFYPREAKVQWKVDNALQSGNSQESVTEQDSKDSTYSLSSTLTLSKADYEKHKVYACEVTHQGLSSPVTKSFNRGEC",,,,,0.053,
"CAT-2200 designed Vlambda-Ckappa chimeric Mab, design 32 (E83I_D85T) (antibody, human IgG1, kappa, IgG1 Mab format) heavy: not shown light: NFMLTQPHSVSESPGKTVTISCTRSSGSLANYYVQWYQQRPGSSPTIVIFANNQRPSGVPDRFSGSIDSSSNSASLTISGLKTEDIATYYCQTYDPYSVVFGGGTKLTVLRTVAAPSVFIFPPSDEQLKSGTASVVCLLNNFYPREAKVQWKVDNALQSGNSQESVTEQDSKDSTYSLSSTLTLSKADYEKHKVYACEVTHQGLSSPVTKSFNRGEC",,,,,0.05,
"CAT-2200 designed Vlambda-Ckappa chimeric Mab, design 18 (E83F_D85T_T105E) (antibody, human IgG1, kappa, V domains shown, IgG1 Mab format) VH: not shown VL: NFMLTQPHSVSESPGKTVTISCTRSSGSLANYYVQWYQQRPGSSPTIVIFANNQRPSGVPDRFSGSIDSSSNSASLTISGLKTEDFATYYCQTYDPYSVVFGGGTKLEVLR",,,,,0.048,
"CAT-2200 Vlambda-Ckappa chimeric Mab (antibody, human IgG1, kappa, IgG1 Mab format; chimeric light chain without stabilizing substitutions; also called chimera) heavy: not shown light: NFMLTQPHSVSESPGKTVTISCTRSSGSLANYYVQWYQQRPGSSPTIVIFANNQRPSGVPDRFSGSIDSSSNSASLTISGLKTEDEADYYCQTYDPYSVVFGGGTKLTVLRTVAAPSVFIFPPSDEQLKSGTASVVCLLNNFYPREAKVQWKVDNALQSGNSQESVTEQDSKDSTYSLSSTLTLSKADYEKHKVYACEVTHQGLSSPVTKSFNRGEC",14.3,,,2500,0.042,
"EP6b_B01 Vlambda-Ckappa chimeric Fab (Fab, V domains shown, Parent chimeric Fab without stabilizing substitutions; also called chimera; VL-CK chimeric Fab) VH: QLQLQESGPGLVKPSETLSLTCTVSGASISANSYYGVWVRQSPGKGLEWVGSIAYRGNSNSGSTYYNPSLKSRATVSVDSSKNQVSLRLTSVTAADTALYYCARRQLLDDGTGYQWAAFDVWGQGTMVTVSS VL: QSVLTQPPSVSEAPRQTVTISCSGNSSNIGRYPVNWYQQLPGKAPKLLIYSDNLRFSGVPDRFSGSKSGTTASLAIRDLLSEDEADYYCSTWDDTLEGWVFGGGTKVTVLR",,,,,,0.0512

# More lines, now with the values ahead:
Kd (human recombinant FcRn) [nM],Kd (recombinant human HER3) [nM],Kd [1] [nM],Kd [2] [nM],Kd (recombinant human IL-17A) [nM],Kd [3] [nM],Binder
86.1,64,1100,4900,,,"H3 designed Vlambda-Ckappa chimeric Mab, design 29 (E83V_D85T_T105E_V106I) (antibody, human IgG1, kappa, name in Kabat numbering, IgG1 Mab format) heavy: not shown light: QSALTQPASVSGSPGQSITISCTGTSSDVGGYNFVSWYQQHPGKAPKLMIYDVSDRPSGVSDRFSGSKSGNTASLIISGLQADDVATYYCSSYGSSSTHVIFGGGTKVEILRTVAAPSVFIFPPSDEQLKSGTASVVCLLNNFYPREAKVQWKVDNALQSGNSQESVTEQDSKDSTYSLSSTLTLSKADYEKHKVYACEVTHQGLSSPVTKSFNRGEC"
,66,,,,,"H3 designed Vlambda-Ckappa chimeric Mab, design 18 (E83F_D85T_T105E) (antibody, human IgG1, kappa, name in Kabat numbering, V domains shown, IgG1 Mab format) VH: QVQLQESGGGLVKPGGSLRLSCAASGFTFSSYWMSWVRQAPGKGLEWVANINRDGSASYYVDSVKGRFTISRDDAKNSLYLQMNSLRAEDTAVYYCARDRGVGYFDLWGRGTLVTVSS VL: QSALTQPASVSGSPGQSITISCTGTSSDVGGYNFVSWYQQHPGKAPKLMIYDVSDRPSGVSDRFSGSKSGNTASLIISGLQADDFATYYCSSYGSSSTHVIFGGGTKVEVLR"
,60,,,,,"H3 designed Vlambda-Ckappa chimeric Mab, design 34 (E83I_D85T_T105E_V106I) (antibody, human IgG1, kappa, name in Kabat numbering, IgG1 Mab format) heavy: not shown light: QSALTQPASVSGSPGQSITISCTGTSSDVGGYNFVSWYQQHPGKAPKLMIYDVSDRPSGVSDRFSGSKSGNTASLIISGLQADDIATYYCSSYGSSSTHVIFGGGTKVEILRTVAAPSVFIFPPSDEQLKSGTASVVCLLNNFYPREAKVQWKVDNALQSGNSQESVTEQDSKDSTYSLSSTLTLSKADYEKHKVYACEVTHQGLSSPVTKSFNRGEC"
96.7,61,1400,3100,,,"H3 designed Vlambda-Ckappa chimeric Mab, design 39 (E83A_D85T_T105E_V106I) (antibody, human IgG1, kappa, name in Kabat numbering, IgG1 Mab format) heavy: not shown light: QSALTQPASVSGSPGQSITISCTGTSSDVGGYNFVSWYQQHPGKAPKLMIYDVSDRPSGVSDRFSGSKSGNTASLIISGLQADDAATYYCSSYGSSSTHVIFGGGTKVEILRTVAAPSVFIFPPSDEQLKSGTASVVCLLNNFYPREAKVQWKVDNALQSGNSQESVTEQDSKDSTYSLSSTLTLSKADYEKHKVYACEVTHQGLSSPVTKSFNRGEC"
,67,,,,,"H3 designed Vlambda-Ckappa chimeric Mab, design 32 (E83I_D85T) (antibody, human IgG1, kappa, name in Kabat numbering, IgG1 Mab format) heavy: not shown light: QSALTQPASVSGSPGQSITISCTGTSSDVGGYNFVSWYQQHPGKAPKLMIYDVSDRPSGVSDRFSGSKSGNTASLIISGLQADDIATYYCSSYGSSSTHVIFGGGTKVTVLRTVAAPSVFIFPPSDEQLKSGTASVVCLLNNFYPREAKVQWKVDNALQSGNSQESVTEQDSKDSTYSLSSTLTLSKADYEKHKVYACEVTHQGLSSPVTKSFNRGEC"
24.7,,1300,2400,0.044,,"CAT-2200 designed Vlambda-Ckappa chimeric Mab, design 39 (E83A_D85T_T105E_V106I) (antibody, human IgG1, kappa, IgG1 Mab format) heavy: not shown light: NFMLTQPHSVSESPGKTVTISCTRSSGSLANYYVQWYQQRPGSSPTIVIFANNQRPSGVPDRFSGSIDSSSNSASLTISGLKTEDAATYYCQTYDPYSVVFGGGTKLEILRTVAAPSVFIFPPSDEQLKSGTASVVCLLNNFYPREAKVQWKVDNALQSGNSQESVTEQDSKDSTYSLSSTLTLSKADYEKHKVYACEVTHQGLSSPVTKSFNRGEC"
27.9,,1300,2300,0.049,,"CAT-2200 designed Vlambda-Ckappa chimeric Mab, design 29 (E83V_D85T_T105E_V106I) (antibody, human IgG1, kappa, IgG1 Mab format) heavy: not shown light: NFMLTQPHSVSESPGKTVTISCTRSSGSLANYYVQWYQQRPGSSPTIVIFANNQRPSGVPDRFSGSIDSSSNSASLTISGLKTEDVATYYCQTYDPYSVVFGGGTKLEILRTVAAPSVFIFPPSDEQLKSGTASVVCLLNNFYPREAKVQWKVDNALQSGNSQESVTEQDSKDSTYSLSSTLTLSKADYEKHKVYACEVTHQGLSSPVTKSFNRGEC"
14.2,,1200,2400,0.027,,"CAT-2200 wild-type lambda Mab (antibody, human IgG1, lambda, IgG1 Mab format; also called WT) heavy: not shown light: NFMLTQPHSVSESPGKTVTISCTRSSGSLANYYVQWYQQRPGSSPTIVIFANNQRPSGVPDRFSGSIDSSSNSASLTISGLKTEDEADYYCQTYDPYSVVFGGGTKLTVLGQPKAAPSVTLFPPSSEELQANKATLVCLISDFYPGAVTVAWKADSSPVKAGVETTTPSKQSNNKYAASSYLSLTPEQWKSHRSYSCQVTHEGSTVEKTVAPTECS"
48.6,85,1100,3400,,,"H3 wild-type lambda Mab (antibody, human IgG1, lambda, IgG1 Mab format; also called WT) heavy: not shown light: QSALTQPASVSGSPGQSITISCTGTSSDVGGYNFVSWYQQHPGKAPKLMIYDVSDRPSGVSDRFSGSKSGNTASLIISGLQADDEADYYCSSYGSSSTHVIFGGGTKVTVLGQPKAAPSVTLFPPSSEELQANKATLVCLISDFYPGAVTVAWKADSSPVKAGVETTTPSKQSNNKYAASSYLSLTPEQWKSHRSYSCQVTHEGSTVEKTVAPTECS"
,,,,,0.0449,"EP6b_B01 designed Vlambda-Ckappa chimeric Fab, design 18 (E83F_D85T_T105E) (Fab, name in Kabat numbering, V domains shown) VH: QLQLQESGPGLVKPSETLSLTCTVSGASISANSYYGVWVRQSPGKGLEWVGSIAYRGNSNSGSTYYNPSLKSRATVSVDSSKNQVSLRLTSVTAADTALYYCARRQLLDDGTGYQWAAFDVWGQGTMVTVSS VL: QSVLTQPPSVSEAPRQTVTISCSGNSSNIGRYPVNWYQQLPGKAPKLLIYSDNLRFSGVPDRFSGSKSGTTASLAIRDLLSEDFATYYCSTWDDTLEGWVFGGGTKVEVLR"
